Measured values from US20260049134A1 (UNIVERSITY OF FLORIDA RESEARCH FOUNDATION, published 2026).

T1: IGSF11
T1 construct: also called IGSF11-Fc (R&D Systems)
T1 chain: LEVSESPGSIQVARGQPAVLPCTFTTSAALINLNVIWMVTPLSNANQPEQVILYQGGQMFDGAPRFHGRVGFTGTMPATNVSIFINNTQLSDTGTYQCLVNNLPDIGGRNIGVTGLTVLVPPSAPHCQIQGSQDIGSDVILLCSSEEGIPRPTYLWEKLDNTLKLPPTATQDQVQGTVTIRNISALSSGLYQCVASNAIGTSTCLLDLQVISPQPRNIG

T2: ANXA1
T2 construct: also called ANXA1-His (R&D Systems); not shown: His tag
T2 chain: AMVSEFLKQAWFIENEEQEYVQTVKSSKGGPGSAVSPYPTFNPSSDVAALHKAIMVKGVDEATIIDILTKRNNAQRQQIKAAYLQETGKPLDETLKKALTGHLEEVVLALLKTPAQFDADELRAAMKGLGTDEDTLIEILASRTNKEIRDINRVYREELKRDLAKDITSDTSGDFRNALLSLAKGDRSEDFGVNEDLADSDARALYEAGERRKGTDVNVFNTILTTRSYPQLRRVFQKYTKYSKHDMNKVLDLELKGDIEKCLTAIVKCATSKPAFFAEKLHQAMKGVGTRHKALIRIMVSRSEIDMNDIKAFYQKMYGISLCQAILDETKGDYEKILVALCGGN

T3: DCC
T3 construct: also called DCC-His (R&D Systems)
T3 chain: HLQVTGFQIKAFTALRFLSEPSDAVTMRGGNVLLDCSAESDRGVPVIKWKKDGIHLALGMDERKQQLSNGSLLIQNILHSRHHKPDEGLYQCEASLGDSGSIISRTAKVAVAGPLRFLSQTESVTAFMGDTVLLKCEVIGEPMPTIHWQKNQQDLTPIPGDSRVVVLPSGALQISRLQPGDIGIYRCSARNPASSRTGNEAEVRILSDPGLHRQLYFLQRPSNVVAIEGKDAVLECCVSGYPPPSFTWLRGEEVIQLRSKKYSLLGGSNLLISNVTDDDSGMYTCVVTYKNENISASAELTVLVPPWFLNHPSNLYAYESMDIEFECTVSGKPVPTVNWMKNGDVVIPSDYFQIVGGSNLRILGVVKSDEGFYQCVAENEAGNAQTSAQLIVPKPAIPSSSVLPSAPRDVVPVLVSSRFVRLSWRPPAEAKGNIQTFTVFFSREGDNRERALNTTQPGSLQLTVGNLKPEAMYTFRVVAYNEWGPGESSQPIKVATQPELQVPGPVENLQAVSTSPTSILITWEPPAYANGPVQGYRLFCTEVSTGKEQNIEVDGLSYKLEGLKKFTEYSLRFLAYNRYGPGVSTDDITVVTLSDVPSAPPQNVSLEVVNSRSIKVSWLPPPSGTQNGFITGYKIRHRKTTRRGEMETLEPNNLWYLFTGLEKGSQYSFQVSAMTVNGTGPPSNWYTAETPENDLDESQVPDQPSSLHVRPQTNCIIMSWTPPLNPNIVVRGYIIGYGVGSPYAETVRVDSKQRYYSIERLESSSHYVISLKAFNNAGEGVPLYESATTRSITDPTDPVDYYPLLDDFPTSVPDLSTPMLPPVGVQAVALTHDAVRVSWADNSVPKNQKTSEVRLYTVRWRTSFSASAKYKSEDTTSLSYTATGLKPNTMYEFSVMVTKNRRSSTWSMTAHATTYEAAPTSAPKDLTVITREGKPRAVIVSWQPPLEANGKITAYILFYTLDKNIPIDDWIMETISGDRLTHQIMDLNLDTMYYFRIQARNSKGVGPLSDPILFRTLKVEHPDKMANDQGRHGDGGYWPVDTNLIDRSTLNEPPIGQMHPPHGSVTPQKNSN


Experiments:
Experiment in all cases: ELISA on coated protein
IGSF11 = target: T1, IGSF11
Procedure: (§1) Recombinant purified ECDs (50-150 ng) of each putative target protein were coated, incubated with 150 ng of the indicated primary antibody, and binding was detected using a peroxidase-conjugated anti-human Fab secondary antibody. Heatmap represents averages of technical triplicates. (8B) Target validation via siRNA knockdown. H929 cells were transfected with siRNA pools targeting the putative antibody targets ICAM1, CADM1, and PTPRG. Cells were then subjected to cognate IgG binding analysis via flow cytometry. (NT, non-targeting siRNA).
(§2) ELISA ELISA was conducted as described previously. Briefly, 50-150 ng of antigen was coated overnight in half-area 96-well plates at 4° C., blocked with 3% BSA at 37° C. for 1 h, and 150 ng of chimeric rabbit/human IgG1 was added, incubating for 2 h at 37° C. […] After incubating at 37° C. for 15 min-1 h (depending on intensity of controls), data were acquired using a SpectraMax M5 plate reader (Molecular Devices).

ANXA1 = target: T2, ANXA1
Procedure: as §1, §2

DCC = target: T3, DCC
Procedure: as §1, §2

Row | Binder | binding result (IGSF11) | binding result (ANXA1) | binding result (DCC)
1 | HW-42 chimeric rabbit-human IgG1 LA/LA/PG (antibody, V domains shown, Fc-silenced (L234A/L235A/P329G) IgG1, lambda; Alexa Fluor 647-labeled in single-step flow cytometry; Cluster C-1) VH: QSVKESEGGLFKPADTLTLTCTVSGFSLSSNEISWVRQAPGEGLEYIGIIDTGGRAYYAVWARSRSTITRNTNLNTVTLKMTSLTAADTATYFCARGGVDTEWYAFSSWGPGTLVTVPS VL: SFVLTQPASVQVNLGQTVSLTCTADTLSRRYASWYQQKPGQAPVLLIFRDTSRPSGVPDRFSGSSSGDTATLTISGAQAGDEADYYCATSDGSGSNYQYVFGGGTQLTVTG | no binding (tested: 150 ng IgG1 per well) | no binding (tested: 150 ng IgG1 per well) | no binding (tested: 150 ng IgG1 per well)
2 | HW-25 chimeric rabbit-human IgG1 LA/LA/PG (antibody, V domains shown, Fc-silenced (L234A/L235A/P329G) IgG1, lambda; Alexa Fluor 647-labeled in single-step flow cytometry; Cluster C-1) VH: QSLEESGGRLVTPGTPLTLTCTVSGFSLSSYAMGWVRQAPGKGLEWIGIIDSRGSTYYATWAKGRFTISKTSTTVDLKITSPTTEDTATYFCAREDSYYYDSFNLWGPGTLVTVSS VL: SFVLTQPASVQVNLGQTVSLTCTADTLSRRYASWYQQKPGQAPVLLIYRDTSRPSGVPDRFSGSSSGNTATLTISGAQAGDEADYYCATSDGSGSSYQCVFGGGTQLTVTG | no binding (tested: 150 ng IgG1 per well) | no binding (tested: 150 ng IgG1 per well) | no binding (tested: 150 ng IgG1 per well)
3 | HW-97 chimeric rabbit-human IgG1 LA/LA/PG (antibody, V domains shown, Fc-silenced (L234A/L235A/P329G) IgG1, lambda; Alexa Fluor 647-labeled in single-step flow cytometry; Prototype of cluster C-97) VH: QKQLVESGGRLVTPGTPLTLTCTVTGIDLSSHGMSWVRQAPGKGLEWIGVIYPSGSTWYASWARGRFTISKTSTTVDLKMTSLTTEDTATHFCARGDVGGADNNIWGPGTLVTVSS VL: SFVLTQPASVQVDLGQTVSLTCTAETLSRSYASWYQQKPGQAPVLLIYRDTSRPSGVPDRFSGSSSGNTATLTISGAQAGDEADYYCATSDGSGSSYQYVFGGGTQLTVTG | no binding (tested: 150 ng IgG1 per well) | no binding (tested: 150 ng IgG1 per well) | no binding (tested: 150 ng IgG1 per well)
4 | HW-17 chimeric rabbit-human IgG1 LA/LA/PG (antibody, V domains shown, Fc-silenced (L234A/L235A/P329G) IgG1, lambda; Alexa Fluor 647-labeled in single-step flow cytometry; Cluster C-1) VH: QSLGESRGRLVTPDETLTLTCTVSGIDLSSNAMSWVRQAPGEGLEWIGTINTGGRAYYASWAKGRFTISRTSTTVDLKMTSLTTEDTATYFCARERYSDGRAYDIWGPGTLVTISS VL: SFVLTQPASVQVNLGQTVSLTCTADTLSRRYASWYQQKPGQAPVLLIYTDSNRPSGIPDRFSGSSSGNTATLTISGAQAGDEADYYCATDDGSGSIYQYVFGGGTQLTVTG | no binding (tested: 150 ng IgG1 per well) | no binding (tested: 150 ng IgG1 per well) | no binding (tested: 150 ng IgG1 per well)
5 | HW-113 chimeric rabbit-human IgG1 LA/LA/PG (antibody, V domains shown, Fc-silenced (L234A/L235A/P329G) IgG1, lambda; Alexa Fluor 647-labeled in single-step flow cytometry) VH: QKQLVESGGGLVQPGGSLTLTCTVSGFSLNKYYMGWFRQAPGKGLEWIGVISRSGDTYYSSWAKGRFTISKASTTVDLRITSPTTEDTATYFCARDASSPGFHGDRLDLWGQGTLVTVSS VL: SFVLTQPASVQVNLGQTVSLTCTADTLSRSYASWYQQKPGQAPVLLIYRDTSRPSGVPDRFSGSSSGNTATLTISGAQAGDEADYYCATSDGIGSNYLWVFGGGTQLTVTG | no binding (tested: 150 ng IgG1 per well) | no binding (tested: 150 ng IgG1 per well) | no binding (tested: 150 ng IgG1 per well)
6 | HW-1 chimeric rabbit-human IgG1 LA/LA/PG (antibody, V domains shown, Fc-silenced (L234A/L235A/P329G) IgG1, lambda; Alexa Fluor 647-labeled in single-step flow cytometry; Prototype of cluster C-1) VH: QSLEESGGGLFKPTDTLTLTCTASGFSLGSSYAISWVRQAPGKELEWIGTIDSGRAYYARWAKSRSTITRNTNENTVTLKMTSLTAADTATYFCARDLIPTYSQDIWGPGTLVTISS VL: SFVLTQPASVQVNLGQTVSLTCTADTLSRRYASWYQQKPGQAPVLLIYRDTSRPSGVPDRFSGSSSGNTATLTISGAQAGDEADYYCATSDGSGNSYQYVFGGGTQLTVTS | no binding (tested: 150 ng IgG1 per well) | no binding (tested: 150 ng IgG1 per well) | no binding (tested: 150 ng IgG1 per well)
7 | HW-101 chimeric rabbit-human IgG1 LA/LA/PG (antibody, V domains shown, Fc-silenced (L234A/L235A/P329G) IgG1, lambda; Alexa Fluor 647-labeled in single-step flow cytometry; Cluster C-97) VH: QEQLVESGGRLVTPGTPLTLTCKASGFSLGKYDMSWVRQAPGKGLEWIGTIYAGSGSTWYASWAKGRFTISKTSTTVDLKMTSLTTEDTATYFCARDFLGVNSIWGPGTLVTISS VL: SFVLTQPASVQVNLGQTVSLTCTADTLSRSYASWYQQKPDQAPVLLIHRDTSRPSGVPDRFSGSNSGNTATLTISGAQAGDEADYYCATSDGSGSNFHFVFGGGTQLTVTG | no binding (tested: 150 ng IgG1 per well) | no binding (tested: 150 ng IgG1 per well) | no binding (tested: 150 ng IgG1 per well)
8 | HW-70 chimeric rabbit-human IgG1 LA/LA/PG (antibody, V domains shown, Fc-silenced (L234A/L235A/P329G) IgG1, lambda; Alexa Fluor 647-labeled in single-step flow cytometry; Cluster C-1) VH: QSLEESGGRLVTPGTPLTLTCTVSGFSLSSNAMSWVRQAPGKGLEWIGTIDGYGYTYYASWAKGRFTVSKTSTTVDLKITSPTTEDTATYFCAREIYLGSNFWGPGTLVTISS VL: SFVLTQPASVQVNLGQTVSLTCTADTLSRRYASWYQQKPGQAPVLLIYRDTSRPSGVPDRFSGSSSGNTATLTISGAQAGDEADYYCATADGSGSSYQFVFGGGTQLTVTG | no binding (tested: 150 ng IgG1 per well) | no binding (tested: 150 ng IgG1 per well) | no binding (tested: 150 ng IgG1 per well)
9 | TH9-0022 (antibody, human IgG1, kappa, L234A L235A, V domains shown, also called TH9-022; negative control IgG1) VH: QSLEESGGRLVTPGTPLTLTCTVSGFSLSSYAMNWVRQAPGKGLEWIGIINSYGSTYYASWAKGRFTISKTSTTVDLKITSPTTEDTATYFCARVTYDSYGYGYAPYGMDLWGPGTLVTVSS VL: LVMTQTPSSTSNAVGGTVTIKCQASQSIGNVLAWYQQKPGQPPKLLIYAASTLASGVPSRVGGSRSGTEYTLTISGVQREDAATYYCLGSDSDSDIAFGGGTELEILR | no binding (tested: 150 ng IgG1 per well) | no binding (tested: 150 ng IgG1 per well) | no binding (tested: 150 ng IgG1 per well)
